# Source: patent publication US20160251438A1 (LUDWIG INSTITUTE FOR CANCER RESEARCH, published 2016)
# B1: LHG-10 (antibody, human IgG1, V domains shown)
# VH: EVQLVQPGAELRNSGASVKVSCKASGYRFTSYYIDWVRQAPGQGLEWMGRIDPEDGGTKYAQKFQGRVTFTADTSTSTAYVELSSLRSEDTAVYYCARNEWETVVVGDLMYEYEYWGQGTQVTVSS
# VL: DIQMTQSPTSLSASLGDRVTITCQASQSISSYLAWYQQKPGQAPKLLIYGASRLQTGVPSRFSGSGSGTSFTLTISGLEAEDAGTYYCQQYDSLPVTFGQGTKVELK
# notes: llama-derived V regions in a full human IgG1
# Assays:
# [1] = target: GARP Y137H / TGF-β1 complex (human, UniProt Q14392 20-662; P01137 30-390); experiment: FACS 293T, 5 ug/ml, normalised to anti-HA
# Source text: (§1) Resolution of the crystal structure of MHG-8 Fab/GARP/TGF-β1 complexes and analysis with the CONTACT software allowed the identification of 22 amino-acids in GARP, 8 amino-acids in LAP and 6 amino-acids in mature TGF-β1 that are located less than 5 Å away from an amino-acid of the light or heavy chain of the MHG-8 Fab (Tables 7a, b and c, and Table 8). Directed mutagenesis was used to construct plasmids encoding HA-tagged forms of GARP or TGF-β1 that are mutated at one, two, or three of these 36 positions (all mutations constructed are indicated in Table 8). […] Antibodies were used at a saturating concentration of 5 μg/ml for labeling. Binding of each antibody to a given mutant GARP/TGF-β1 complex was compared to their binding to wild type (WT) complexes, by determining an I_{m/wt} value (i.e. intensity of binding to mutant by comparison to WT). This value was calculated as follows: I_{m/wt} of antibody X=[Geom on mutant−Geom on control]/[Geom on WT−Geom on control]
# (§2) The level of residual binding of anti-GARP or anti-LAP antibodies to each mutant was then calculated by comparison to WT, taking into account the expression levels of mutant and WT forms as measured with anti-HA antibodies. Residual binding was calculated as follows: Residual binding by an anti-GARP or anti-LAP antibody=[I_{m/wt} with anti-GARP or anti-LAP antibody]/[I_{m/wt} with anti-HA antibody]
# [2] = target: GARP Y137H/S138G/G139N / TGF-β1 complex (human, UniProt Q14392 20-662; P01137 30-390); experiment: FACS 293T, 5 ug/ml, normalised to anti-HA
# Source text: as §1, §2
# [3] = target: GARP R143Y / TGF-β1 complex (human, UniProt Q14392 20-662; P01137 30-390); experiment: FACS 293T, 5 ug/ml, normalised to anti-HA
# Source text: as §1, §2
# [4] = target: GARP T162D / TGF-β1 complex (human, UniProt Q14392 20-662; P01137 30-390); experiment: FACS 293T, 5 ug/ml, normalised to anti-HA
# Source text: as §1, §2
# [5] = target: GARP R163E / TGF-β1 complex (human, UniProt Q14392 20-662; P01137 30-390); experiment: FACS 293T, 5 ug/ml, normalised to anti-HA
# Source text: as §1, §2
# [6] = target: GARP / TGF-β1 Y336A complex (human, UniProt Q14392 20-662; P01137 30-390); experiment: FACS 293T, 5 ug/ml, normalised to anti-HA
# Source text: as §1, §2
# [7] = target: GARP / TGF-β1 K338E complex (human, UniProt Q14392 20-662; P01137 30-390); experiment: FACS 293T, 5 ug/ml, normalised to anti-HA
# Source text: as §1, §2
# [8] = target: GARP M111T/A112G/T113M / TGF-β1 complex (human, UniProt Q14392 20-662; P01137 30-390); experiment: FACS titration on transfected 293T; EC50 mutant / EC50 WT [cont.) B]
# Procedure: (§3) Intensities of staining at each concentration of antibody relative to the maximal intensity measured at 5 μg/ml were determined as follows:
# (§4) The relative staining intensities were plotted according to the concentration of antibody used for staining, and a non-linear regression analysis was used with the Prism software to determine an EC₅₀ value for binding of the antibody to the WT and to each of the various mutant GARP/TGF-β1 complexes. If the ratio between the EC₅₀ measured on the mutant and the EC₅₀ measured on the WT was >2, the mutation was considered to induce a reduced avidity for binding by the antibody. The ratio of EC₅₀ (mutant vs WT) for MHG-8 and LHG-10 are indicated below each mutation on FIG. 19, parts A and B, respectively.
# [9] = target: GARP / TGF-β1 Y284A complex (human, UniProt Q14392 20-662; P01137 30-390); experiment: as above
# Procedure: as §3, §4
# [10] = target: GARP S116N / TGF-β1 complex (human, UniProt Q14392 20-662; P01137 30-390); experiment: flow cytometry on transfected 293T cells, 5 ug/ml; grade of Loss of binding read by footnote 2
# Source text: as §1, §2
# [11] = target: GARP S138G / TGF-β1 complex (human, UniProt Q14392 20-662; P01137 30-390); experiment: as above
# Source text: as §1, §2
# [12] = target: GARP R143A / TGF-β1 complex (human, UniProt Q14392 20-662; P01137 30-390); experiment: as above
# Source text: as §1, §2
# [13] = target: GARP R166M/H167E / TGF-β1 complex (human, UniProt Q14392 20-662; P01137 30-390); experiment: as above
# Source text: as §1, §2
# [14] = target: GARP R170A / TGF-β1 complex (human, UniProt Q14392 20-662; P01137 30-390); experiment: as above
# Source text: as §1, §2
# [15] = target: GARP / TGF-β1 Q269Y complex (human, UniProt Q14392 20-662; P01137 30-390); experiment: as above
# Source text: as §1, §2
# [16] = target: GARP / TGF-β1 Q272Y complex (human, UniProt Q14392 20-662; P01137 30-390); experiment: as above
# Source text: as §1, §2
# [17] = target: GARP / TGF-β1 L271R/Q272Y/S273W complex (human, UniProt Q14392 20-662; P01137 30-390); experiment: as above
# Source text: as §1, §2
# GARP S116N / TGF-β1 complex, sequence (Q14392 20-662 S116N limits assumed, chain 1 of 2): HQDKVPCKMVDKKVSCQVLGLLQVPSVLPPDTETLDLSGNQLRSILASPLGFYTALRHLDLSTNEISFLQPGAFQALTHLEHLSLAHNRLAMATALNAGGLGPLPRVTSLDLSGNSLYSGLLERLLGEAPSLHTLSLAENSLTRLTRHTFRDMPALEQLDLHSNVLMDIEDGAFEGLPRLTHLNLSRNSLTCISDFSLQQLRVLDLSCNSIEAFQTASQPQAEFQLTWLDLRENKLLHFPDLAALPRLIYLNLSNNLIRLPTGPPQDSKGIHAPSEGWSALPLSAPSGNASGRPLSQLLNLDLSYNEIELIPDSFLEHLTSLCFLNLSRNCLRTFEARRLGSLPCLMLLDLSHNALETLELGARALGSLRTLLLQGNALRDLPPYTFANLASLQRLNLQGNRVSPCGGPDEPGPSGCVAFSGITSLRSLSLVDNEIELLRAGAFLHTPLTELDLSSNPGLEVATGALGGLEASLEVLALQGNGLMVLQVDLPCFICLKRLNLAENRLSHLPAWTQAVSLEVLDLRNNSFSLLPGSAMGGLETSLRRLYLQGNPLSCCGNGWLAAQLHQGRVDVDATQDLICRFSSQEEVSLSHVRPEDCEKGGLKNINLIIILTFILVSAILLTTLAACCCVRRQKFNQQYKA
# GARP S116N / TGF-β1 complex, sequence (P01137 30-390 limits assumed, chain 2 of 2): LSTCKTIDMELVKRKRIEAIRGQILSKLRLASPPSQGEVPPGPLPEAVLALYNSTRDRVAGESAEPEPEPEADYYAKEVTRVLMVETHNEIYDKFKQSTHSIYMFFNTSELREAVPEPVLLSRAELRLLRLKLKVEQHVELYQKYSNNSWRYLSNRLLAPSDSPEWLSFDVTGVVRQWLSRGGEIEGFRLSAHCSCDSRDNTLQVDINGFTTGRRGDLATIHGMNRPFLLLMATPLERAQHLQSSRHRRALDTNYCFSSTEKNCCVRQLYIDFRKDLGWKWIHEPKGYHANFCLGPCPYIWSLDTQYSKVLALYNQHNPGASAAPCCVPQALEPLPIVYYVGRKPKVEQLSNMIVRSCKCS
# GARP R163E / TGF-β1 complex, sequence (Q14392 20-662 R163E limits assumed, chain 1 of 2): as the sequence (Q14392 20-662 S116N limits assumed, chain 1 of 2) above, with N97S, R144E counted along it
# GARP R163E / TGF-β1 complex, sequence (P01137 30-390 limits assumed, chain 2 of 2): as the sequence (P01137 30-390 limits assumed, chain 2 of 2) above
# GARP R166M/H167E / TGF-β1 complex, sequence (Q14392 20-662 R166M/H167E limits assumed, chain 1 of 2): as the sequence (Q14392 20-662 S116N limits assumed, chain 1 of 2) above, with N97S, R147M, H148E counted along it
# GARP R166M/H167E / TGF-β1 complex, sequence (P01137 30-390 limits assumed, stated change not applied, chain 2 of 2): as the sequence (P01137 30-390 limits assumed, chain 2 of 2) above
# GARP T162D / TGF-β1 complex, sequence (Q14392 20-662 T162D limits assumed, chain 1 of 2): as the sequence (Q14392 20-662 S116N limits assumed, chain 1 of 2) above, with N97S, T143D counted along it
# GARP T162D / TGF-β1 complex, sequence (P01137 30-390 limits assumed, chain 2 of 2): as the sequence (P01137 30-390 limits assumed, chain 2 of 2) above
binder,measurement,setting,value
B1,residual binding (% of WT),[1],62%
same,residual binding (% of WT),[2],6%
same,residual binding (% of WT),[3],68%
same,residual binding (% of WT),[4],49%
same,residual binding (% of WT),[5],48%
same,residual binding (% of WT),[6],56%
same,residual binding (% of WT),[7],15%
same,Ratio of EC50 (mutant / wt),[8],1.2
same,Ratio of EC50 (mutant / wt),[9],1.9
same,residual binding on mutant by comparison to WT,[10],≥ 50%
same,residual binding on mutant by comparison to WT,[11],≥ 50%
same,residual binding on mutant by comparison to WT,[12],≥ 50%
same,residual binding on mutant by comparison to WT,[13],≥ 50%
same,residual binding on mutant by comparison to WT,[14],≥ 50%
same,residual binding on mutant by comparison to WT,[15],≥ 50%
same,residual binding on mutant by comparison to WT,[16],≥ 50%
same,residual binding on mutant by comparison to WT,[17],≥ 50%
